Test results: publication PMC3234751

Molecular target: GFP-tagged IQGAP1 lacking IQ domains (IQGAPΔIQ) (UniProt P46940)
Assay: co-IP

UniProt P46940, sequence (P46940 whole entry, stated change not applied, the tested form may be a part): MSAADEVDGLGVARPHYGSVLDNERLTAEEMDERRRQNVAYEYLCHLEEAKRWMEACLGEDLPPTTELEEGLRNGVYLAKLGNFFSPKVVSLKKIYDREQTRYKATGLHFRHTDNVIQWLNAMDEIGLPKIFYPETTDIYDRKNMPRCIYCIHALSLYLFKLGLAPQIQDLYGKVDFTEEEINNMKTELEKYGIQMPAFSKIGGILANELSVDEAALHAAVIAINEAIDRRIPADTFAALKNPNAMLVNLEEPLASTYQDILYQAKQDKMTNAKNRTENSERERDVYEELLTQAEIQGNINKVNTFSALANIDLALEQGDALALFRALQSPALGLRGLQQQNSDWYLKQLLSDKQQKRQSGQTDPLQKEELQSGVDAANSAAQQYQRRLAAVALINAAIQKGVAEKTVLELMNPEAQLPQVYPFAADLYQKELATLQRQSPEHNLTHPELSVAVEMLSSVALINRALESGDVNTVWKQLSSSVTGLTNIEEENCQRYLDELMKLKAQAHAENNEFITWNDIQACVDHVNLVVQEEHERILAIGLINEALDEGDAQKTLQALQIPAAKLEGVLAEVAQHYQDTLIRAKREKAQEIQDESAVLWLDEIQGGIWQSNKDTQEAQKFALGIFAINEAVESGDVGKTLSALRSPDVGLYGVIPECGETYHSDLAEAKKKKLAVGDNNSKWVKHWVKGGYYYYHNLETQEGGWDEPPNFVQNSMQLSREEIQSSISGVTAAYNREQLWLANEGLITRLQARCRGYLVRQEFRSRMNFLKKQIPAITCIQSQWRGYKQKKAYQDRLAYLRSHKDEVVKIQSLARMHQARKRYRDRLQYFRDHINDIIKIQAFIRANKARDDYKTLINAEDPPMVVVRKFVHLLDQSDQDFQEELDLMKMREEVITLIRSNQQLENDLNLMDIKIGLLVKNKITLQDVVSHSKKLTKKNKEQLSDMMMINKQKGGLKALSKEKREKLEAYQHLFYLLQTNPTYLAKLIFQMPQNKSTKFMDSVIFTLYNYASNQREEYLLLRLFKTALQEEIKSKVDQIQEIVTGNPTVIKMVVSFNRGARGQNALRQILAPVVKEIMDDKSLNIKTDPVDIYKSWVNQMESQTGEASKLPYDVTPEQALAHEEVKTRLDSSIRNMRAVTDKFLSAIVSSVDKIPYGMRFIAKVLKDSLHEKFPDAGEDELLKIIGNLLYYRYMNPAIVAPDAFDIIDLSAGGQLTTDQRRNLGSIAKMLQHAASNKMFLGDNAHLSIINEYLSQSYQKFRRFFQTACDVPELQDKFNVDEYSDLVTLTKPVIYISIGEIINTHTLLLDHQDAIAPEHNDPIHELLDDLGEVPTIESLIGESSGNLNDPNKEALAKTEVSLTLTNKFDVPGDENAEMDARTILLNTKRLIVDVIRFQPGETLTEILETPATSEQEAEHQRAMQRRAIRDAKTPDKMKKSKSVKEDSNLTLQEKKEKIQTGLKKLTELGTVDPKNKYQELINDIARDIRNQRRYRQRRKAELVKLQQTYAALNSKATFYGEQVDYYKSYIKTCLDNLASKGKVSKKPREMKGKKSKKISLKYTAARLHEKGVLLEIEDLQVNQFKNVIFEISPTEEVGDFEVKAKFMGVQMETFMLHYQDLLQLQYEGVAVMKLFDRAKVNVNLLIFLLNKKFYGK

fold enhancement in binding (densitometry): 3.6 fold
Substance: AKAP220, endogenous in COS cells (natural protein)
